Measured values taken from patent US20020177203A1 (published 2002).

Biological target: T1, mouse α2 subunit of prolyl 4-hydroxylase (mouse, UniProt Q60716 20-537)
T1 construct: Recombinant, made in Sf9 insect cells with a baculovirus; also called α(2) subunit of mouse prolyl 4-hydroxylase; α2 polypeptide
Assay: coexpression in insect cells; nondenaturing PAGE and Western blot
Protocol: A recombinant baculovirus coding for the mouse α2 subunit was generated and used to infect S. frugiperda insect cells with or without the human PDI/β subunit, wherein the insect cells were infected at a multiplicity of 5. For production of an enzyme tetramer, the human α59 1 (see, Vuori, et al., supra) or mouse α2 viruses and the PDI/β viruses (id.) were used in a 1:1 or 2:1 ratio. The cells were harvested 72 hours after infection, homogenized in 0.01 M tris, pH 7.8/0.1 M NaCl/0.1 M glycine/10 μM dithiothreitol/0.1% Triton X-100, and centrifuged. The resulting supematants were analyzed by SDS/8% PAGE or nondenaturing 7.5% PAGE and assayed for enzyme activities.

T1 sequence (Q60716 20-537): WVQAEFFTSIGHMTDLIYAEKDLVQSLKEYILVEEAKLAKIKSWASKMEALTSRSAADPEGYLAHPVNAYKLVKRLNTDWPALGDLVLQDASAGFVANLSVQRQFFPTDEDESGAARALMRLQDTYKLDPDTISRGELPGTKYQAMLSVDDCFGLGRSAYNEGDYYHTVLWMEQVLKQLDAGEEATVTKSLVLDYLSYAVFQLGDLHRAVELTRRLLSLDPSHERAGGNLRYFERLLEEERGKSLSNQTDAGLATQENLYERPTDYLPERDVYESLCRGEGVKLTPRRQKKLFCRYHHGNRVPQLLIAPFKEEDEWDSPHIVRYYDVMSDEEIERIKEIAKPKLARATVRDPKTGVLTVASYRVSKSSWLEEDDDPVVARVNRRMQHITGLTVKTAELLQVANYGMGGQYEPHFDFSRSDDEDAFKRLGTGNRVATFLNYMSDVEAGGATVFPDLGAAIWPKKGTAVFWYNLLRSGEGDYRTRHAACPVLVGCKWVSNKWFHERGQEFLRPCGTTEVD

B1: human PDI/β subunit of prolyl 4-hydroxylase (protein disulfide-isomerase) (enzyme)
chain: not shown
notes: Made in Sf9 insect cells with a recombinant baculovirus (Vuori et al.); also called human β subunit
  binding result: binds
